This series concerns the molecule itself. Description: NMR titration.

These results are taken from publication doi:10.1101/2022.11.10.516004 (bioRxiv, 2022).

B1: TDP-43 C-terminal domain (CTD), wild type (domain or fragment, human, UniProt Q13148 267-414, looked up)
chain: NRQLERSGRFGGNPGGFGNQGGFGNSRGGGAGLGNNQGSNMGGGMNFGAFSINPAMMAAAQAALQSSWGMMGMLASQQNQSGPSGNNQNQGNMQREPNQAFGSGNNSYSGSNSGAAIGWGSASNAGSGSGFNGGFGSSMDSKSSGWGM
On to B1, for which the binding result is “binds”.
